Results as given in patent US20240116985A1, “STAPLED PEPTIDES AND METHODS THEREOF” (priority 2020, published 2024).
Starred links: 1 amine or outer side, 2 acyl side, 3 side chain; linkers in the order of their positions; H or OH if unused. Positions of bridges follow the written chain, without caps; N, C: chain ends. Non-standard residues stand in square brackets, D forms with d. Primed or numbered codes have the meaning given here. No end group written: not given here. ξ: configuration not given here. *: point of attachment. PyrS2″ = (S)-3-amino-1-((pent-4-en-1-yloxy)carbonyl)pyrrolidine-3-carboxylic acid (stapling residue), C=CCCCOC(=O)N1CC[C@@](N[*:1])(C(=O)[*:2])C1; B5(4) = 2,2-bis(4-pentenyl)glycine = 2-amino-2-(pent-4-en-1-yl)hept-6-enoic acid (stitching residue), C=CCCCC(CCCC=C)(N[*:1])C(=O)[*:2]; B5(5) = 2,2-bis(4-pentenyl)glycine, 2-amino-2-(pent-4-en-1-yl)hept-6-enoic acid (stitching residue), C=CCCCC(CCCC=C)(N[*:1])C(=O)[*:2]; B5(21) = 2-amino-2-(pent-4-en-1-yl)hept-6-enoic acid, bis(4-pentenyl)glycine (stitching residue), C=CCCCC(CCCC=C)(N[*:1])C(=O)[*:2]; TfeGA = (S)-2-amino-3-((carboxymethyl)(2,2,2-trifluoroethyl)amino)propanoic acid, O=C([C@H](CN(CC(=O)[*:3])CC(F)(F)F)N[*:1])[*:2]; PyrS2 = (S)-3-amino-1-((pent-4-en-1-yloxy)carbonyl)pyrrolidine-3-carboxylic acid, C=CCCCOC(=O)N1CC[C@@](N[*:1])(C(=O)[*:2])C1; B5(3) = 2,2-bis(4-pentenyl)glycine (stitching residue), C=CCCCC(CCCC=C)(N[*:1])C(=O)[*:2]; B5 = 2-amino-2-(pent-4-en-1-yl)hept-6-enoic acid, C=CCCCC(CCCC=C)(N[*:1])C(=O)[*:2]; Phe(3-COOH) = N[C@@H](Cc1cccc(C(=O)O)c1)C(=O)O; Phe(2-Cl) = N[C@@H](Cc1ccccc1Cl)C(=O)O; Bta = N[C@@H](Cc1csc2ccccc12)C(=O)O; Lys(iPr) = CC(C)NCCCC[C@H](N)C(=O)O; hTyr = N[C@@H](CCc1ccc(O)cc1)C(=O)O; αAllylPro = C=CC[C@@]1(C(=O)O)CCCN1; tBuAla = CC(C)(C)C[C@H](N)C(=O)O; 3Thi = N[C@@H](Cc1ccsc1)C(=O)O; Cha = N[C@@H](CC1CCCCC1)C(=O)O; Thr(ol) = C[C@@H](O)[C@H](N)CO; ξβ3hD = NC(CC(=O)O)CC(=O)O; hSer = N[C@@H](CCO)C(=O)O; iPr = CC(C)*

target: full-length beta-Catenin (Uniprot ID P35222) (Homo sapiens (Human)) (UniProt P35222); test: fluorescence polarization competition; full-length beta-catenin, competitor 5FAM-TCF4(10-53) probe
Target sequence in this assay (P35222 2-781 limits assumed): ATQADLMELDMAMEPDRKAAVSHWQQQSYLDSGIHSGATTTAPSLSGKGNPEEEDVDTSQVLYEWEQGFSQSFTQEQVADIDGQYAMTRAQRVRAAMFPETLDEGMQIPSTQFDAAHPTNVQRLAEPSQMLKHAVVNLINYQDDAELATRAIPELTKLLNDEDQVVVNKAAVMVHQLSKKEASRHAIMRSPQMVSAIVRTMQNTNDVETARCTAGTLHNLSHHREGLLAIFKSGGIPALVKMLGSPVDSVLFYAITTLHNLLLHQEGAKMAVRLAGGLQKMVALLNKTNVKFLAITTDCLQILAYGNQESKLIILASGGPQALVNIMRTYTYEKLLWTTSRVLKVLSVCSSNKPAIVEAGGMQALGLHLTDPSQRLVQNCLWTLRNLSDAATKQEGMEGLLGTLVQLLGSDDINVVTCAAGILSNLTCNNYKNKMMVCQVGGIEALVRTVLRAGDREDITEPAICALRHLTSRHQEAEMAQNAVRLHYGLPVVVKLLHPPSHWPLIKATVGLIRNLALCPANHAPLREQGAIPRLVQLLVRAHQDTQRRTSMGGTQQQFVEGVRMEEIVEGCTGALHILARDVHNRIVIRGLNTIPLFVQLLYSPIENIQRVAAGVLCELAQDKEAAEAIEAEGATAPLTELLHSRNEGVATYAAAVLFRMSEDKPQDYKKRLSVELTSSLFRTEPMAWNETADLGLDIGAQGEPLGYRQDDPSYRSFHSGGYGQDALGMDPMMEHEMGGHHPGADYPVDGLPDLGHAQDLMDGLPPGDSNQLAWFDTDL

EC50 [nM] | IC50 [nM] | Binder
12 |  | Ac-[αAllylPro]D[tBuAla][B5(4)]DD[Lys(iPr)]AFL[PyrS2″][Phe(2-Cl)][Bta][Thr(ol)] (staple 1-4, 4-11) [I-1313]
 | 14 | Ac-[αAllylPro]D[tBuAla][B5(4)]DTAAFT[PyrS2″][3Thi][Bta]Q-NH2 (staple 1-4, 4-11) [I-1166]
 | 25 | Ac-[αAllylPro]D[tBuAla][B5(21)]DTAAFT[PyrS2″][Phe(2-Cl)][Bta]Q-NH2 (staple 1-4, 4-11) [I-1168]
 | 15 | Ac-[αAllylPro]D[tBuAla][B5(4)]DTAAFT[PyrS2″][3Thi][Bta]S-NH2 (staple 1-4, 4-11) [I-1170]
 | 70 | Ac-[αAllylPro]D[tBuAla][B5(21)]DTAAFL[PyrS2″][3Thi][Bta]S-NH2 (staple 1-4, 4-11) [I-1171]
 | 159 | Ac-[αAllylPro]D[tBuAla][B5(21)]DTAAFL[PyrS2″][Phe(2-Cl)][Bta]Q-NH2 (staple 1-4, 4-11) [I-1169]
75 |  | [αAllylPro]D[tBuAla][B5]DDAAFF[PyrS2][Cha][Bta]Q-NH2 (staple 1-4, 4-11) [I-1331]
 | 34 | Ac-[αAllylPro]D[tBuAla][B5(4)]DTAAFL[PyrS2″][3Thi][Bta]Q-NH2 (staple 1-4, 4-11) [I-1167]
 | 24 | Ac-[αAllylPro][ξβ3hD][tBuAla][B5(4)]D[TfeGA]AAFN[PyrS2″][3Thi][Bta]Q-NH2 (staple 1-4, 4-11) [I-1161]

target: full-length beta-Catenin (Uniprot ID P35222) (Homo sapiens (Human)) (UniProt P35222); test: fluorescence polarization competition; full-length beta-catenin; competitor 5FAM-TCF4(10-53) probe
Target sequence in this assay (P35222 whole entry): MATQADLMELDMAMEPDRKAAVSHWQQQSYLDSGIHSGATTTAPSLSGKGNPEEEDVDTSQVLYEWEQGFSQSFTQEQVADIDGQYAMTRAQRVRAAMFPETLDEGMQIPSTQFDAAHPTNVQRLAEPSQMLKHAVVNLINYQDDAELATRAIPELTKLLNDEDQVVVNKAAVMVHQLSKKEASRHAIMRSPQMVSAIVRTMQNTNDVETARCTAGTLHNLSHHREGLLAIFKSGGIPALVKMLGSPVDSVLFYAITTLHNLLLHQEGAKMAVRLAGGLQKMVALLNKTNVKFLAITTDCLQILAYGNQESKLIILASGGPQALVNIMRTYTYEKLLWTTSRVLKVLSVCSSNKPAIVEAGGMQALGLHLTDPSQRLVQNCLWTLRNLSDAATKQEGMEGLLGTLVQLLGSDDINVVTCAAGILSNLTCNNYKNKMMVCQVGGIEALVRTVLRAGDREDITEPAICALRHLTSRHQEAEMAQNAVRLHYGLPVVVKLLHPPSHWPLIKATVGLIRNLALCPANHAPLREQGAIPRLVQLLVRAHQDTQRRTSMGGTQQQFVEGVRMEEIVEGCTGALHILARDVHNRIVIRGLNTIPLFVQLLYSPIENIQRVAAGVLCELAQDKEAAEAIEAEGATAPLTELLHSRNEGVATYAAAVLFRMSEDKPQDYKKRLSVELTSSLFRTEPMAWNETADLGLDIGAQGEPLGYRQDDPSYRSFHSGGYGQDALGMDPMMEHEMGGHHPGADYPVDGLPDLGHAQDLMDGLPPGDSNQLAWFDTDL

EC50 [nM] | Binder
14 | Ac-[αAllylPro]D[tBuAla][B5(4)]DTAAFT[PyrS2″][3Thi][Bta]Q-NH2 (staple 1-4, 4-11) [I-1166]
25 | Ac-[αAllylPro]D[tBuAla][B5(21)]DTAAFT[PyrS2″][Phe(2-Cl)][Bta]Q-NH2 (staple 1-4, 4-11) [I-1168]
15 | Ac-[αAllylPro]D[tBuAla][B5(4)]DTAAFT[PyrS2″][3Thi][Bta]S-NH2 (staple 1-4, 4-11) [I-1170]
70 | Ac-[αAllylPro]D[tBuAla][B5(21)]DTAAFL[PyrS2″][3Thi][Bta]S-NH2 (staple 1-4, 4-11) [I-1171]
159 | Ac-[αAllylPro]D[tBuAla][B5(21)]DTAAFL[PyrS2″][Phe(2-Cl)][Bta]Q-NH2 (staple 1-4, 4-11) [I-1169]
34 | Ac-[αAllylPro]D[tBuAla][B5(4)]DTAAFL[PyrS2″][3Thi][Bta]Q-NH2 (staple 1-4, 4-11) [I-1167]
24 | Ac-[αAllylPro][ξβ3hD][tBuAla][B5(4)]D[TfeGA]AAFN[PyrS2″][3Thi][Bta]Q-NH2 (staple 1-4, 4-11) [I-1161]

target: full-length beta-Catenin (Uniprot ID P35222) (Homo sapiens (Human)) (UniProt P35222); test: fluorescence polarization competition; competitor 5FAM-TCF4(10-53) probe on full-length beta-catenin
Target sequence in this assay (P35222 whole entry): as above

IC50 [nM] | Binder
12 | Ac-[αAllylPro]D[tBuAla][B5(4)]DHAA[Phe(3-COOH)]L[PyrS2″][3Thi][Bta]Q-NH2 (staple 1-4, 4-11; also: earlier eluting HPLC isomer composition) [I-2122]
68 | Ac-[αAllylPro]D[tBuAla][B5(4)]DYAA[Phe(3-COOH)]L[PyrS2″][3Thi][Bta]Q-NH2 (staple 1-4, 4-11) [I-2126]
21 | Ac-[αAllylPro]D[tBuAla][B5(4)]DHAA[Phe(3-COOH)]N[PyrS2″][3Thi][Bta]Q-NH2 (staple 1-4, 4-11; also: earlier eluting HPLC isomer composition) [I-2118]
12 | Ac-[αAllylPro]D[tBuAla][B5(4)]DHAA[Phe(3-COOH)]L[PyrS2″][3Thi][Bta]Q-NH2 (staple 1-4, 4-11; also: later eluting HPLC isomer composition) [I-2123]
29 | Ac-[αAllylPro]D[tBuAla][B5(4)]DHAA[Phe(3-COOH)]N[PyrS2″][3Thi][Bta]Q-NH2 (staple 1-4, 4-11; also: later eluting HPLC isomer composition) [I-2119]
29 | Ac-[αAllylPro]D[tBuAla][B5(4)]DWAA[Phe(3-COOH)][hSer][PyrS2″][3Thi][Bta]Q-NH2 (staple 1-4, 4-11) [I-2128]
105 | Ac-[αAllylPro]D[tBuAla][B5(4)]DWAA[Phe(3-COOH)]L[PyrS2″][3Thi][Bta]Q-NH2 (staple 1-4, 4-11) [I-2129]
36 | Ac-[αAllylPro]D[tBuAla][B5(4)]DWAA[Phe(3-COOH)]N[PyrS2″][3Thi][Bta]Q-NH2 (staple 1-4, 4-11) [I-2127]
26 | Ac-[αAllylPro]D[tBuAla][B5(4)]DYAA[Phe(3-COOH)][hSer][PyrS2″][3Thi][Bta]Q-NH2 (staple 1-4, 4-11; also: later eluting HPLC isomer composition) [I-2125]
29 | Ac-[αAllylPro]D[tBuAla][B5(4)]DYAA[Phe(3-COOH)][hSer][PyrS2″][3Thi][Bta]Q-NH2 (staple 1-4, 4-11; also: earlier eluting HPLC isomer composition) [I-2124]

More lines, now with the values behind:

Binder | IC50 [nM]
Ac-[αAllylPro]D[tBuAla][B5(4)]D[hTyr]AA[Phe(3-COOH)][hSer][PyrS2″][3Thi][Bta]Q-NH2 (staple 1-4, 4-11; also: later eluting HPLC isomer composition) [I-2117] | 19
Ac-[αAllylPro]D[tBuAla][B5(4)]DD[Lys(iPr)]AFL[PyrS2″][Phe(2-Cl)][Bta][Thr(ol)] (staple 1-4, 4-11) [I-1313] | 12
Ac-[αAllylPro]N[Cha][B5(3)]DQ[Lys(iPr)]AFN[PyrS2″]F[Bta]Q-NH2 (staple 1-4, 4-11) [I-2113] | 164
[αAllylPro]D[tBuAla][B5]DDAAFF[PyrS2][Cha][Bta]Q-NH2 (staple 1-4, 4-11) [I-1331] | 75
Ac-[αAllylPro]D[tBuAla][B5(4)]D[hTyr]AA[Phe(3-COOH)][hSer][PyrS2″][3Thi][Bta]Q-NH2 (staple 1-4, 4-11; also: earlier eluting HPLC isomer composition) [I-2116] | 19
Ac-[αAllylPro]N[Cha][B5(3)]DQ[Lys(iPr)]AFN[PyrS2″]F[Bta]T-NH2 (staple 1-4, 4-11) [I-2112] | 501
Ac-[αAllylPro]N[Cha][B5(4)]DQ[Lys(iPr)]AFN[PyrS2″]F[Bta]N-NH2 (staple 1-4, 4-11) [I-2111] | 180
Ac-[αAllylPro]D[tBuAla][B5(4)]D[hTyr]AA[Phe(3-COOH)]N[PyrS2″][3Thi][Bta]Q-NH2 (staple 1-4, 4-11; also: later eluting HPLC isomer composition) [I-2115] | 29
Ac-[αAllylPro]D[tBuAla][B5(4)]D[hTyr]AA[Phe(3-COOH)]N[PyrS2″][3Thi][Bta]Q-NH2 (staple 1-4, 4-11; also: earlier eluting HPLC isomer composition) [I-2114] | 32
